This note sets out measurements from publication doi:10.1101/414334.

A word on the stoichiometry N: it is the number of molecules, sites or subunits per partner or assembly.

Experiment [1] has as its target glyceraldehyde-3-phosphate dehydrogenase (GAPDH) of Thermosynechococcus elongatus (Thermosynechococcus elongatus BP-1). Briefly: crystal structure.
Experiment [2] has the same target. In words: crystal structure. This is another data set of the same source.
For experiment [3] the target is unchanged. Briefly: cryo-EM structure.
The target of experiment [4] is phosphoribulokinase (PRK) of Thermosynechococcus elongatus, native (Thermosynechococcus elongatus (endogenous in T. elongatus cells)). In words: cryo-EM structure.

As for “CP12 of Thermosynechococcus elongatus (natural protein)”, the stoichiometry N (CP12 per GAPDH tetramer) came out at 4 in experiment [1], 2 in experiment [2] and 2 in experiment [3].

On to “glyceraldehyde-3-phosphate dehydrogenase (GAPDH) of Thermosynechococcus elongatus (enzyme)”, for which the stoichiometry N in experiment [2] and in experiment [3] was 4 in each case.

With “phosphoribulokinase (PRK) of Thermosynechococcus elongatus, native (enzyme)”, in experiment [4], the stoichiometry N worked out at 2.
